± gives the uncertainty stated by the source.

The data set in a line: amyloid nucleation score (Sup35N fusion, yeast selection) (log enrichment); library NNK1; higher = more nucleation; inactive = no reads after selection. An outline of the steps: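 In psi-negative yeast, Sup35N fusions carrying peptides of 20 random codons were induced with 100 μM copper sulfate for 24 hours. The cells then grew 7 days at 30°C on medium lacking adenine and uracil, and plasmid inserts from input and output were Illumina-sequenced, excluding sequences with under 100 input reads. Nucleation score is the DiMSum log enrichment of output over input reads, centred on the mode score of non-aggregating sequences.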
As for KLCWASTRMMWRFYFLDCLD, the amyloid nucleation score stood at 0.146 ± 0.39.
Regarding KLDNCGCGRGCEQLDVVQSQ, the amyloid nucleation score amounted to 0.044 ± 0.53.
As for KLHNILLWNCLVFLCVMYVW, the amyloid nucleation score result was “inactive”.
Take KLILWGRLSANNFYYSFGFL: the amyloid nucleation score is -0.214 ± 0.27.
Substance KLINCLGIVL returned an amyloid nucleation score of -0.92 ± 1.1.
Turning to KLKINCMYN, the amyloid nucleation score is 2.03 ± 0.45.
The figure for KLLDSSVVDSLRQHCEAGLR is 0.075 ± 0.3.
As for KLLHLVIVDELCFVRYSGLA, the amyloid nucleation score turned out to be 0.381 ± 0.81.
As to KLQMGFIKMFAGQECFDVHA, the amyloid nucleation score result was “inactive”.
As to KLSVGYRFWVLDSDFIVDDY, the amyloid nucleation score amounted to 0.16 ± 0.23.
Substance KLVLLGNK yielded an amyloid nucleation score of 0.134 ± 0.5.
With KLVLYEVFSSKKKHIFLSHQ the figure was 0.586 ± 0.26; with KLYNGLQHVQAGTLVMQ, 0.46 ± 1.2; with KMGYFE, 0.915 ± 0.45.
On to KMSAWQFGGHVLCNARMGYE, for which the amyloid nucleation score was -0.112 ± 0.36.
KMWIRCVIGVRMLYPFARCG had an amyloid nucleation score of -0.138 ± 0.49.
KNDYSYWL registered an amyloid nucleation score of -0.275 ± 0.65.
For KNKVTFKVG, the amyloid nucleation score came to 0.22 ± 0.3.
With KPERICLWLVVKRYSMVHLW the figure was 0.253 ± 0.51.
KQNNGFGWEYEAGGLHRKGA registered an amyloid nucleation score of -0.989 ± 2.7.
In the case of KRFSSCLRRWAACNGESAAL, the amyloid nucleation score came to 0.412 ± 0.45.
In the case of KRIDDYAKFRC, the amyloid nucleation score result was “inactive”.
The substance KRLGWSSVFRLARVERVLRS registered an amyloid nucleation score of -0.929 ± 1.9.
In turn, KRVLNLFGEESFAGMIWIDY yielded an amyloid nucleation score of -0.125 ± 0.97.
Substance KSDLLNMRWVGYWFIVSSMR returned an amyloid nucleation score of 0.099 ± 0.67.
For the substance KSDVAARVCDER, the amyloid nucleation score turned out to be 0.526 ± 0.31.
Substance KSEYWHSCYVANSPYDYRTV had an amyloid nucleation score of -0.422 ± 1.2.
KSFYGNFRGFFNALNIYHSS registered an amyloid nucleation score of 1.83 ± 0.28.
KSLFVLVWTLLLPT: the amyloid nucleation score is -0.223 ± 0.35.
The substance KSLMRTTMSCQSDYEDQKDV displayed an amyloid nucleation score of 0.883 ± 0.78.
The figure for KSLQTETFTKTAATQKSELA is -0.3 ± 0.52; for KSLSRFRVTNSKEYMSAMGT it is -0.299 ± 0.26; for KSMMDMSYLMEYIGI it is -2.65 ± 2.4.
Regarding KSVLQFETMGFVDLYFSFNL, the amyloid nucleation score was found to be 5.49 ± 0.091.
For the substance KSVPRKVFGAILDFLDLQLM, the amyloid nucleation score was found to be 0.979 ± 0.73.
KSWQFMSRGVSGWFWRLVPQ: the amyloid nucleation score stood at 0.743 ± 0.48.
With KSYVCGTLTFRLGSVHCVNM the figure was 7.025 ± 0.057; with KTGFYGFMVGM, 4.54 ± 0.063; with KTRFLKYDNLSWTDKSNWVL, “inactive”.
Substance KVFRLILGGVSNKYT gave an amyloid nucleation score of 0.228 ± 0.64.
With KVFSVHRHCQESVVGAVLCS, the amyloid nucleation score is -0.371 ± 0.73.
With KVQIY the figure was -0.968 ± 0.36.
Consider KVRMLNMVYKNLSDRD, for which the amyloid nucleation score worked out at 0.884 ± 0.56.
Take KVWSGCSAPQ: the amyloid nucleation score was found to be 2.09 ± 0.43.
KWCDMRGYGQRFRCGRMVHV registered an amyloid nucleation score of -0.727 ± 0.73.
With KWTGRGSYNDRLFVRRRMF the figure was -0.073 ± 0.47; with LAAVQTDMFISTLLECLDDK, 1.08 ± 0.35.
LADDHE registered an amyloid nucleation score of 0.229 ± 0.93.
For LAEGASTL, the amyloid nucleation score was -0.217 ± 1.1.
As for LAHWHFNWSRILQCFYW, the amyloid nucleation score stood at 3.08 ± 0.095.
The figure for LAIEENVRDQSGDYVWALIL is -0.122 ± 0.35; for LALHEWLWLFDTFH it is -0.097 ± 0.62.
In turn, LALKYPSLISPKRWT displayed an amyloid nucleation score of 0.688 ± 0.36.
Substance LALVFLLMFVHQSDDYKLRN yielded an amyloid nucleation score of 2.89 ± 0.17.
LAMSSQSHYCKRRSVCRKSV came in with an amyloid nucleation score of 0.786 ± 0.81.
Substance LAPNNYAFHVNKSWGMNLVW displayed an amyloid nucleation score of 1.05 ± 0.2.
With LASEHNGASLICTLACTYLW, the amyloid nucleation score was -0.642 ± 1.
Substance LASGNILAICWTRSEGSDTL gave an amyloid nucleation score of -0.313 ± 1.1.
For the substance LASHHLACCYPNLSTSYLNP, the amyloid nucleation score was -0.118 ± 0.84.
Substance LAYKNSLWGLLWKRF registered an amyloid nucleation score of -0.011 ± 0.49.
In turn, LCAFLPVRTVKLCAFRIFDR showed an amyloid nucleation score of -1.06 ± 0.85.
In turn, LCCAKLRNAIKVVNQCTCGY displayed an amyloid nucleation score of 4.4 ± 0.049.
Take LCCKVLLALSAPGQFSVHNA: the amyloid nucleation score is -0.621 ± 1.4.
With LCDFVLNIEREVNVYSFIKL the figure was 2.34 ± 0.13.
LCDSPSKYNGPEYSMYVNLN registered an amyloid nucleation score of 1.51 ± 0.7.
Turning to LCEFSPLSCGCYGRDPHVPP, the amyloid nucleation score is -0.73 ± 1.2.
Turning to LCELQYAKWIMKLVYKTFTT, the amyloid nucleation score entry is “inactive”.
With LCFVVVTSHDRGMHVIKVET, the amyloid nucleation score was -0.857 ± 0.51.
For the substance LCIIYVNYSGLLMTVNISSF, the amyloid nucleation score entry was “inactive”.
LCKVPLNT gave an amyloid nucleation score of 1.36 ± 0.9.
The figure for LCLSSWGLTLSLLIDCIYNR is -0.53 ± 0.48; for LCMMMVQPLQGLSSAVTWSQ it is -0.54 ± 0.35; for LCRFSAEDHCYADCTVDHCC it is -0.244 ± 0.66.
Substance LCSMKMIYQKC displayed an amyloid nucleation score of 0.177 ± 0.33.
LCTLCIALPVMRVLSTVPVP came in with an amyloid nucleation score of 0.267 ± 0.59.
Take LCVCGPRSVVNAREDVEGLS: the amyloid nucleation score was determined as 0.478 ± 0.55.
The substance LCVRAIVRSCNSWKKYSFPR came in with an amyloid nucleation score of 0.031 ± 1.
As to LCWVYHYKGFKRGVCRRCES, the amyloid nucleation score is -0.86 ± 1.6.
With LCYFQGSWYLVRCAIALTYV the figure was 0.327 ± 0.48; with LDASRNFVLLFS, 0.784 ± 0.34.
On to LDCHD, for which the amyloid nucleation score was -0.246 ± 0.44.
As for LDDAWRVWMHSL, the amyloid nucleation score is 0.981 ± 0.43.
The substance LDFNLICLYFLM returned an amyloid nucleation score of 5.37 ± 0.072.
The substance LDLAGGKG displayed an amyloid nucleation score of 1.74 ± 0.14.
LDNRYFGHIMSLELMFIRPS: the amyloid nucleation score worked out at 1.19 ± 0.58.
As to LDNWYISRFCCDVMTDANVD, the amyloid nucleation score was -0.322 ± 0.8.
LDTYRVNWMMRLATYNMMVM showed an amyloid nucleation score of 0.312 ± 0.4.
Take LDWHKLRDWVKLGW: the amyloid nucleation score was -0.255 ± 0.73.
LDWLMGGRTA came in with an amyloid nucleation score of -0.598 ± 1.7.
LENYDRGDSTRHIDCRLLFL gave an amyloid nucleation score of 0.275 ± 0.52.
With LEQCYAAHSTYKMMPWAYKA, the amyloid nucleation score turned out to be 0.091 ± 0.33.
In turn, LETINSSGRHF displayed an amyloid nucleation score of 2.74 ± 0.091.
The substance LEVVHRVLCTFCLFDSLMVY gave an amyloid nucleation score of 1.78 ± 0.26.
In turn, LEVYGQCDRVHCHSSR came in with an amyloid nucleation score of -0.276 ± 0.5.
The substance LFFECVTLHLYLVKSS gave an amyloid nucleation score of -1.1 ± 2.4.
The substance LFFEVMHTFMLNMEFLLRFI returned an amyloid nucleation score of -1.12 ± 0.94.
With LFGLYFICSLKAISSYTERL, the amyloid nucleation score was found to be 0.456 ± 0.23.
LFHGCLVGLSMRKVKKKNPA returned an amyloid nucleation score of 0.277 ± 0.28.
Turning to LFIKFGTHVRYILA, the amyloid nucleation score was -0.202 ± 0.42.
LFIKVLLGFF yielded an amyloid nucleation score of 0.32 ± 0.45.
For the substance LFLGGVIVHSQLCMTVGCCF, the amyloid nucleation score came out at 6.54 ± 0.079.
LFLMKANMELVNLYFRSEVR registered an amyloid nucleation score of -0.556 ± 0.52.
In turn, LFLSSCLNSGLGGTL had an amyloid nucleation score of 0.105 ± 0.29.
The figure for LFMIMLL is -1.01 ± 0.43; for LFRNANAMDYVVRCWCSRGI it is 0.928 ± 0.18.
Substance LFSWICEN yielded an amyloid nucleation score of 0.142 ± 0.28.
The figure for LFVRFKTYVLP is 0.663 ± 0.3; for LFVRKVIYVDR it is 0.379 ± 0.33; for LFYNICFYA it is 6.738 ± 0.048.
The entry for LGALIYNSAFN is “inactive”; for LGDELDTDAASISSNMEIWS it is “inactive”.
Substance LGEMGRVSYLYVCLHWALLS showed an amyloid nucleation score of 0.119 ± 0.44.
With LGFAFQNVTKALNLTFAYGS the figure was 0.81 ± 0.15.
The figure for LGFLRLFKKYVFYACCDVYS is -0.175 ± 0.84; for LGFPMRSVGQI it is “inactive”; for LGFRVNWIDHPRSNRSTAGL it is 0.604 ± 0.97.
With LGGGTFVRWLKSILSFLLW the figure was 0.325 ± 0.46; with LGKIAQLYSEEVEQKSGSGV, -0.539 ± 0.42; with LGMGLTKLLSNYMSGIIVPL, -0.047 ± 1.7.
As to LGNIKFITYVERCTQEVVSY, the amyloid nucleation score is -1.49 ± 1.8.
Turning to LGQGRLYILYFMSMYLDMMG, the amyloid nucleation score amounted to 0.748 ± 0.47.
Substance LGRHLMILTYQYEEDFPKYR yielded an amyloid nucleation score of 0.938 ± 0.16.
With LGTIVVSSVGKLGIIMTRAE the figure was 1.3 ± 0.15; with LGWIDSYTYHWDTIHRKQFR, 0.878 ± 0.33; with LGWVYLHMWLGTIYYLFFVI, -1.14 ± 1.
In turn, LGYEGWYTRVIYGKVALWME came in with an amyloid nucleation score of -0.215 ± 0.59.
Turning to LGYRPWFWTTAFSSLADLAR, the amyloid nucleation score is -0.907 ± 1.3.
For LGYVIYFVFWRRHSFSYSAC, the amyloid nucleation score was -0.407 ± 0.31.
The substance LGYVYSKSTSSTQSLFICSG yielded an amyloid nucleation score of -0.287 ± 0.26.
In turn, LHERRYSLLSLESLIHNKSC returned an amyloid nucleation score of -0.752 ± 0.61.
With LHLYIMS the entry was “inactive”; with LHQVMAWCMGEKWAETRSPW, -0.703 ± 2.1.
With LHRRSDNGESFWTEGSITFV, the amyloid nucleation score was -0.086 ± 0.25.
With LHTCHSLLPLIEYDFISYGV, the amyloid nucleation score is -0.208 ± 0.7.
Substance LHWFQLMANFI had an amyloid nucleation score of -0.069 ± 0.28.
The figure for LIEGRGIRGLVCCFSISFA is 8.375 ± 0.048; for LIFVNVSGL it is 6.406 ± 0.054; for LIHVCQYCVRPVNGGSVNLR it is 0.264 ± 0.44.
Regarding LIHVRCSLVQCANSELQGAG, the amyloid nucleation score turned out to be 2.65 ± 0.28.

These data come from the supplement of paper PMC12042874.
